Key:
[1] = target: T1, human TIGIT expressed on cells (CHO-K1 transfectants; Jurkat over-expressing human TIGIT) (human, UniProt Q495A1 25-244); test: cell-based or functional assay
T1 sequence: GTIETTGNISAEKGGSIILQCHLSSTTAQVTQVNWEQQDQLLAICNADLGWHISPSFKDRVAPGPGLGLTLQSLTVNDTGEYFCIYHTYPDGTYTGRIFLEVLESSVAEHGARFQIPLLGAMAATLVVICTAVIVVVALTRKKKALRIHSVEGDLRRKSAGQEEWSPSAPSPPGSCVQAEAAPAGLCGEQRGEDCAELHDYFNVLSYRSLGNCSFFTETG

[2] = target: T2, human TIGIT-His protein (extracellular domain of human TIGIT fused to His tag) (human, UniProt Q495A1 25-141); test: SPR, Biacore T200; antibody captured on anti-mouse IgG, human TIGIT-His as analyte; 1:1 Langmuir fit
T2 construct: also called hTIGIT-His; hTIGIT-HIS
T2 sequence: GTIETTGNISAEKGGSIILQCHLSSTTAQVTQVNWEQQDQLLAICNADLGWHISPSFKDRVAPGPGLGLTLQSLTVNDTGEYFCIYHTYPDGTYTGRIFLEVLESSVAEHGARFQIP
Experimental: The kinetic binding activity of anti-human TIGIT antibodies 14D7 and 26B10 (made as described in Example 1) and of commercial antibody MBSA43 was measured by surface plasmon resonance using a Biacore T200 system (Biacore, GE Healthcare, Piscataway, N.J.). […] Mouse anti-human TIGIT clones, 14D7, 26B10 and MBSA43, were each injected over the immobilized anti-mouse surfaces at 1 μg/mL for a capture level of 40 RU. HBS-EP+ buffer (BR-1006-69) was used as the running buffer with a flow rate of 30 μL/min. Varying concentrations of human TIGIT-His protein, ranging from 0.29 nM to 40 nM, at a flow rate of 45 μL/min were injected over the antibody surfaces. Following each Mouse anti-human TIGIT injection cycle, the Series S CM5 chip surface was regenerated using one three-minute injection of 10 mM Glycine pH 1.7 at a flow rate of 10 μL/min.
Background subtraction binding sensorgrams were used for analyzing the rate constant of association (kₐ) and dissociation (kd), and the equilibrium dissociation constant KD. The resulting data sets were fitted with a 1:1 Langmuir Binding Model using the Biacore T200 evaluation software (version 2.0). Table 3 summarizes the affinities for the anti-human TIGIT antibodies to human TIGIT-His protein.

[3] = target: T1, human TIGIT expressed on cells (CHO-K1 …); test: cell-based ELISA on CHO cells expressing human TIGIT (panel 'Binding to CHO-human TIGIT Cells')
[4] = target: T3, cynomolgous/rhesus TIGIT expressed on CHO-K1 cells (cynomolgous monkey / rhesus monkey); test: cell-based ELISA on CHO cells expressing rhesus TIGIT (panel 'Binding to CHO-rhesus TIGIT Cells')
T3 construct: also called cyno/rhesus TIGIT; cyno/rhesus TIGIT-CHOK1 cells
T3 sequence (chain, as listed by the source): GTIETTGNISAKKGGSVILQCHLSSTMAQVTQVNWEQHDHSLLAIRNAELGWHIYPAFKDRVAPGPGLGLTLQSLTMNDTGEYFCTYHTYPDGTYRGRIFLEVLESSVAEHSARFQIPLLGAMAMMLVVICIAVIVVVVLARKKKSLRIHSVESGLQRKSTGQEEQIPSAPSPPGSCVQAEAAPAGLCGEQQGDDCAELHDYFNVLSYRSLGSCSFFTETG

[5] = target: T1, human TIGIT expressed on cells (CHO-K1 …); test: cell-based ELISA blocking assay: binding of human CD155-huFc to CHO-hTIGIT cells in the presence of titrated antibody

B1: mouse anti-human TIGIT antibody 14D7 (clone MEB125.14D7) (antibody, V domains shown)
VH: EVKLEESGGGLVQPGGSMKLSCVASGFTFSGAWMDWVRQSPEKGLEWVAEIRTKVNNHATNYGESVKGRFTISRDDSKSSVYLQMNNLRAEDSGIYYCRGALYDGFYFDYWGQGTTLTVSS
VL: QIVLTQSPAIMSASPGEKVNLTCSASSSVSSGYLYWYQQKPGSSPKLWIYGTSTLASGVPARFSGSGSGTSYSLTISNMEAEDAASYFCHQWSSFPYTFGGGTKLEMK
notes: Mouse IgG1/kappa; also called 14D7 (mIgG1/K); MEB125.14D7.C1.C1
[1]
  EC50, rescue of IL-2 in hTIGIT-Jurkat / THP-1 co-culture with CD155-Fc or CD112-Fc: 170 ng/mL
[2]
  Kd: 0.0046 nM
[3]
  EC50 (read off the curve): ~0.06 ng/mL
[4]
  EC50 (read off the curve): ~0.06 ng/mL
[5]
  IC50 (read off the curve): ~80000 ng/mL

B2: mouse anti-human TIGIT antibody 26B10 (clone MEB125.26B10) (antibody, V domains shown)
VH: EVQLQQSGPELVKPGASVKISCKTSGYTFTEFTMHWVKQSHGKSLEWIGGLKPDNGGISYNQKFKGRATLAVDKSSNTAYMELRSLTSEDSAVYYCARGAYYRYDADYWGQGTTLTVSS
VL: DIVLTQSHKFMSTSVGDRVSITCKASQDVKTAVAWYQQKSGQSPKLLIYSASYRNTGVPDRFTGSGSGTDFTFTIDSVQAEDLAVYFCQQHYSTPFTFGTGTKLELK
notes: Mouse IgG1/kappa; also called 26B10 (mIgG1/K)
[1]
  EC50, rescue of IL-2 in hTIGIT-Jurkat / THP-1 co-culture with CD155-Fc or CD112-Fc: 190 ng/mL
[2]
  Kd: 0.14 nM
[3]
  EC50 (read off the curve): ~0.05 ng/mL
[4]
  EC50 (read off the curve): ~0.04 ng/mL
[5]
  IC50 (read off the curve): ~50000 ng/mL

From US20180371083A1 (Merck Sharp & Dohme, published 2018)
